Data as given in paper doi:10.1101/2023.11.08.566319.

Target: T33-51 protein cage subunit B
Experiment: native MS; SEC-purified co-expressed cage, 2 uM in 200 mM ammonium acetate pH 7.4; Q Exactive UHMR
Details: scale: copies of A with 12 copies of B in the cage

Substance: T33-51 protein cage subunit A (designed binder)
- stoichiometry N: 11
